Laboratory results published in patent US20190338002A1 (Pieris, published 2019).

T1: rat beta CGRP (SEQ ID NO: 83) (rat, not fully specified)
T1 construct: also called rat βCGRP; rat β-CGRP
T1 peptide: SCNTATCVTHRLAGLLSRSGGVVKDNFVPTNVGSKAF

T2: human alpha CGRP (SEQ ID NO: 80) (human, not fully specified)
T2 construct: also called human αCGRP; hαCGRP
T2 peptide: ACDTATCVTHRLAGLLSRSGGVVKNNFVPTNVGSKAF

T3: human beta CGRP (SEQ ID NO: 81) (human, not fully specified)
T3 construct: also called human βCGRP; hβCGRP
T3 peptide: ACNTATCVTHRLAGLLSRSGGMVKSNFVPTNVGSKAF

T4: rat alpha CGRP (SEQ ID NO: 82) (rat)
T4 construct: also called rat αCGRP; rat α-CGRP
T4 peptide: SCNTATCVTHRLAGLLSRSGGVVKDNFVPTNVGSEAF


Experiments:
[1] = target: T1, rat beta CGRP (SEQ ID NO: 83); assay: SPR, 37 C, mutein captured, CGRP analyte
Protocol: (§1) The Biotin CAPture Kit (GE Healthcare) was used to immobilize biotinylated lipocalin muteins to a chip surface. Muteins were biotinylated using standard NHS chemistry. Undiluted Biotin CAPture Reagent (streptavidin conjugated with ss-DNA oligo) was captured on a Sensor Chip CAP with the pre-immobilized complementary ss-DNA oligo. Thereafter, biotinylated muteins at 1 μg/mL were applied for 300 s at a flow rate of 5 μL/min.
(§2) CGRP species were applied in three concentrations of 30 nM, 3 nM and 0.3 nM at a flow rate of 30 μL/min or in a single concentration of 25 nM per cycle as shown in FIG. 2. The dilutions were injected with association times of 180 s and dissociation times of 5400 sec to obtain ka and kd information. Regeneration of the chip surface was achieved by injecting 6 M Guanidinium-HCl+0.25 M NaOH (120 s) with a flow rate of 10 μL/min. Injection of regeneration solutions was followed by an extra wash step with HBS-EP+(1×; BR-1006-69; GE Healthcare) running buffer and a stabilization period of 120 s.
(§3) The data were double-referenced by subtraction of the corresponding signals measured for the control channel (loaded with Biotin CAPture reagent only) and by subtraction of buffer injections from the binding responses. Association rate constant ka and dissociation rate constant kd for the binding reaction were determined using Biacore T200 Evaluation Software V2.0 for data processing and kinetic fitting. The data were globally fit with 1:1 binding model.

[2] = target: T2, human alpha CGRP (SEQ ID NO: 80); assay: SPR, 37 C, mutein captured, CGRP analyte
Protocol: as §1, §2, §3

[3] = target: T3, human beta CGRP (SEQ ID NO: 81); assay: SPR, 37 C, mutein captured, CGRP analyte
Protocol: as §1, §2, §3

[4] = target: T4, rat alpha CGRP (SEQ ID NO: 82); assay: SPR, 37 C, mutein captured, CGRP analyte
Protocol: as §1, §2, §3

[5] = target: T2, human alpha CGRP (SEQ ID NO: 80); assay: SPR as in Example 5
Protocol: as §1, §2

[6] = target: T3, human beta CGRP (SEQ ID NO: 81); assay: SPR as in Example 5
Protocol: as §1, §2

[7] = target: T2, human alpha CGRP (SEQ ID NO: 80); assay: cell-based or functional assay
[8] = target: T3, human beta CGRP (SEQ ID NO: 81); assay: cell-based or functional assay

Binder	Kd [1]	koff [1]	kon [1]	Kd [2]	koff [2]	kon [2]	Kd [3]	koff [3]	kon [3]	Kd [4]	koff [4]	kon [4]	Kd [5]	Kd [6]	cAMP assay IC50, SK-N-MC cells [7]	cAMP assay IC50, SK-N-MC cells [8]
lipocalin mutein SEQ ID NO: 7 (designed binder, biotinylated by NHS chemistry for capture in SPR) QDSTSDLIPAPPLSKVPLQQNFQDNQFHGKWYVVGWAGNTLLREDKDPIKMQATIYELKEDKSYNVTWVYFSEKRCNYHIETSVPGSQPGEFTLGTIKSYPGETSILVRVVSTNYNQHAMVFFKGVSQNREIFEITLYGRTKELTSELKENFIRFSKSLGLPENHIVFPVPIDQCIDGSAWSHPQFEK	0.091 nM	0.000276 s⁻¹	3.04e+06 M⁻¹ s⁻¹	0.067 nM	0.000249 s⁻¹	3.74e+06 M⁻¹ s⁻¹	0.036 nM	0.000188 s⁻¹	5.21e+06 M⁻¹ s⁻¹	0.3 nM	0.000313 s⁻¹	1.04e+06 M⁻¹ s⁻¹				
lipocalin mutein SEQ ID NO: 28 (designed binder, biotinylated by NHS chemistry for capture in SPR) QDSTSDLIPAPPLSKVPLQQNFQDNQFHGKWYVVGWAGNTLLREDKDPIKMQAIIYELKEDRSYNVTWVYFSEKKCNYHIETFVPGSQPGEFTLGTIKSYPGETPILVRVMSTNYNQHAMVFFKGVNQNREIFEIILYGRTKELTNELKENFIRFSKSLGLPENHIVFPVPIDQCIDGSAWSHPQFEK	0.032 nM	5.48e-05 s⁻¹	1.72e+06 M⁻¹ s⁻¹	0.031 nM	4.99e-05 s⁻¹	1.59e+06 M⁻¹ s⁻¹	0.014 nM	3.41e-05 s⁻¹	2.52e+06 M⁻¹ s⁻¹	0.049 nM	6.88e-05 s⁻¹	1.41e+06 M⁻¹ s⁻¹				
lipocalin mutein SEQ ID NO: 8 (designed binder, biotinylated by NHS chemistry for capture in SPR) QDSTSDLIPAPPLSKVPLQQNFQDNQFHGKWYVVGWAGNTLRREDKNPTKMQATIYELKEDKSYNVTWVYFSEKKCNYHIETSVPGSQPGEFTLGTIKSYPGETSILVRVVSTNYNQHAMVFFKGVSQNREIFEITLYGRTKELTSELKENFIRFSKSLGLPENHIVFPVPIDQCIDGSAWSHPQFEK	0.349 nM	0.000636 s⁻¹	1.82e+06 M⁻¹ s⁻¹	0.288 nM	0.000595 s⁻¹	2.07e+06 M⁻¹ s⁻¹	0.143 nM	0.000529 s⁻¹	3.7e+06 M⁻¹ s⁻¹	1.14 nM	0.000837 s⁻¹	734000 M⁻¹ s⁻¹				
cysteine-free lipocalin mutein SEQ ID NO: 31 (designed binder, biotinylated by NHS chemistry for capture in SPR) QDSTSDLIPAPPLSKVPLQQNFQDNQFQGKWYVVGWAGNTLLREDKDPIKMQAMIYELKEDKSYNVTWVYFADKKRNYHIETFVPGSQPGEFTLGTIKSYPGETPILVRVVSTNYNQHAMVFFKGVNQNREIFEIVLYGRTKELTNELKENFIRFSKSLGLPENHIVFPVPIDQFIDGSAWSHPQFEK													0.033 nM	0.043 nM	0.19 nM	1.64 nM
cysteine-free lipocalin mutein SEQ ID NO: 33 (designed binder, biotinylated by NHS chemistry for capture in SPR) QDSTSDLIPAPPLSKVPLQQNFQDNQFQGKWYVVGWAGNTLLREDKDPIKMQAMIYELKEDKSYNVTWVYFADKKLNYHIETFVPGSQPGEFTLGTIKSYPGETPILVRVVSTNYNQHAMVFFKGVNQNREIFEIVLYGRTKELTNELKENFIRFSKSLGLPENHIVFPVPIDQWIDGSAWSHPQFEK													0.034 nM	0.018 nM	0.14 nM	0.24 nM
lipocalin mutein SEQ ID NO: 9 (designed binder, biotinylated by NHS chemistry for capture in SPR) QDSTSDLIPAPPLSKVPLQQNFQDNQFHGKWYVVGWAGNTLLREDKDPIKMQATIYELKEDKSYDVTWVYLSEKKCNYHIETSVPGSQPGEFTLGTIKSYPGETSILVRVVSTNYNQHAMVFFKGMSQNREIFEITLYGRTKELASELKENFIRFSKSLGLPENHIVFPVPIDQCIDGSAWSHPQFEK	0.075 nM	0.000275 s⁻¹	3.68e+06 M⁻¹ s⁻¹	0.044 nM	0.000257 s⁻¹	5.88e+06 M⁻¹ s⁻¹	0.027 nM	0.000181 s⁻¹	6.8e+06 M⁻¹ s⁻¹	0.26 nM	0.000318 s⁻¹	1.22e+06 M⁻¹ s⁻¹				
cysteine-free lipocalin mutein SEQ ID NO: 32 (designed binder, biotinylated by NHS chemistry for capture in SPR) QDSTSDLIPAPPLSKVPLQQNFQDNQFQGKWYVVGWAGNTLLREDKDPIKMQAMIYELKEDKSYNVTWVYFADKKMNYHIETFVPGSQPGEFTLGTIKSYPGETPILVRVVSTNYNQHAMVFFKGVNQNREIFEIVLYGRTKELTNELKENFIRFSKSLGLPENHIVFPVPIDQYIDGSAWSHPQFEK													0.034 nM	0.021 nM	0.17 nM	0.26 nM
lipocalin mutein SEQ ID NO: 12 (designed binder, biotinylated by NHS chemistry for capture in SPR) QDSTSDLIPAPPLSKVPLQQNFQDNQFHGKWYVVGWAGNTLLREDKDPPKMQATIYELKEDRSYNVTWVYFSEKKCNYHIETSVPGSQPGEFTLGTIQSHPGETPILVRVVSTNYNQHAMVFFKGMGQNREIFEITLYGRTKELTSELKENFIRFSKSLGLPENHIVFPVPIDQCIDGSAWSHPQFEK	0.176 nM	0.000205 s⁻¹	1.17e+06 M⁻¹ s⁻¹	0.15 nM	0.000162 s⁻¹	1.08e+06 M⁻¹ s⁻¹	0.095 nM	0.000104 s⁻¹	1.1e+06 M⁻¹ s⁻¹	0.45 nM	0.000299 s⁻¹	661000 M⁻¹ s⁻¹				
lipocalin mutein SEQ ID NO: 10 (designed binder, biotinylated by NHS chemistry for capture in SPR) QDSTSDLIPAPPLSKVPLQQNFQDNQFHGKWYVVGWAGNTLLREDKNPTKMQATIYELKEDKSYNATWVYLSEKKCNYHIETSVPGSQPGEFTLGTTKSYPGETPILVRVVSTNYNQHAMVFFKGVSQNREIFEITLYGRTKELTSELKENFIRFSKSLGLPENHIVFPVPIDQCIDGSAWSHPQFEK	0.206 nM	0.000224 s⁻¹	1.08e+06 M⁻¹ s⁻¹	0.163 nM	0.000205 s⁻¹	1.26e+06 M⁻¹ s⁻¹	0.076 nM	0.000162 s⁻¹	2.14e+06 M⁻¹ s⁻¹	0.55 nM	0.000307 s⁻¹	559000 M⁻¹ s⁻¹				
lipocalin mutein SEQ ID NO: 13 (designed binder, biotinylated by NHS chemistry for capture in SPR) QDSTSDLIPAPPLSKVPLQQNFQDNQFHGKWYVVGRAGNEELREDKDPQKMEATIYELKEDKSYNVTDVGFSEKKCIYVIHTFVPGSQPGEFTLGNIKSYPGVTSALVRVVSTNYNQHAMVFFKVVKQNRELFEITLYGRTKELTSELKENFIRFSKSLGLPENHIVFPVPIDQCIDGSAWSHPQFEK	0.111 nM	0.00035 s⁻¹	3.16e+06 M⁻¹ s⁻¹	0.075 nM	0.000436 s⁻¹	5.82e+06 M⁻¹ s⁻¹	0.031 nM	0.000366 s⁻¹	1.18e+07 M⁻¹ s⁻¹	0.28 nM	0.000525 s⁻¹	1.85e+06 M⁻¹ s⁻¹				
lipocalin mutein SEQ ID NO: 16 (designed binder, biotinylated by NHS chemistry for capture in SPR) QDSTSDLIPAPPLSKVPLQQNFQDNQFHGKWYVVGRAGNDELREDKDPEKMEATIYELKEDKSYNVTDVGFVQKKCMYVIHTFVPGSQPGEFTLGNIKSYPGVTSGLVRVVSTNYNQHAMVFFKVVRQNRELFEITLYGRTKELTSELKENFIRFSKSLGLPENHIVFPVPIDQCIDGSAWSHPQFEK	0.097 nM	0.000229 s⁻¹	2.37e+06 M⁻¹ s⁻¹	0.052 nM	0.000259 s⁻¹	5.02e+06 M⁻¹ s⁻¹	0.036 nM	0.000364 s⁻¹	1.01e+07 M⁻¹ s⁻¹	0.28 nM	0.000398 s⁻¹	1.41e+06 M⁻¹ s⁻¹				
lipocalin mutein SEQ ID NO: 21 (designed binder, biotinylated by NHS chemistry for capture in SPR) QDSTSDLIPAPPLSKVPLQQNFQDNQFHGKWYVVGRAGNDALREDKDPEKMEATIYELKEDKSYNVTDVGFVQKKCMYVIHTFVPGSQPGEFTLGNIKSYPGVTSALIRVVNTNYNQHAMVFVKLVKQNRELFEITLYGRTKELTSELKENFIRFSKSLGLPENHIVFPVPIDQCIDGSAWSHPQFEK	0.018 nM	2.36e-05 s⁻¹	1.34e+06 M⁻¹ s⁻¹	0.014 nM	1.71e-05 s⁻¹	1.21e+06 M⁻¹ s⁻¹	0.004 nM	8.74e-06 s⁻¹	2.36e+06 M⁻¹ s⁻¹	0.053 nM	3.7e-05 s⁻¹	703000 M⁻¹ s⁻¹				
lipocalin mutein SEQ ID NO: 22 (designed binder, biotinylated by NHS chemistry for capture in SPR) QDSTSDLIPAPPLSKVPLQQNFQDNQFHGKWYVVGRAGNDALREDKDPEKMEATIYELKEDKSYNVTDVGLVQKKCMYVIHTFVPGGQPGEFTLGNIKSYPGVTSALVRVVSTNYNQHAMVFVKLVKQNRELFEITLYGRTKELTSELKENFIRFSKSLGLPENHIVFPVPIDQCIDGSAWSHPQFEK	0.013 nM	2.02e-05 s⁻¹	1.6e+06 M⁻¹ s⁻¹	0.009 nM	1.56e-05 s⁻¹	1.76e+06 M⁻¹ s⁻¹	0.003 nM	9.32e-06 s⁻¹	2.7e+06 M⁻¹ s⁻¹	0.033 nM	3.05e-05 s⁻¹	931000 M⁻¹ s⁻¹				
